Molecular target: CD40 (human) (UniProt P25942)
Experiment: cell-based or functional assay

Chain of UniProt P25942 (P25942 21-277): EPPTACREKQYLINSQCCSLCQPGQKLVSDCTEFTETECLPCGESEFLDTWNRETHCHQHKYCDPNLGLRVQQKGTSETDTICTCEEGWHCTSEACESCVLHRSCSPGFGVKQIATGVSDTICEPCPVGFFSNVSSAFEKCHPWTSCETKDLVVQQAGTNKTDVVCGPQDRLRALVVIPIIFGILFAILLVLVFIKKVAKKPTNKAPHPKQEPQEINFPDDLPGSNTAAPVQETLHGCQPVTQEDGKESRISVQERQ

Anti-CD40 antibody (IgG1 mutant, REGN3794)
T cell activation (percentage of live CD2+CD16-CD8+ cells expressing CD25) (% below CD20×CD3 (REGN1979) alone): 35

From US20220233690A1
